Experimental data reported in US20240390460A1 (Regeneron, published 2024).

T1: Human IL2RG (interleukin-2 receptor subunit gamma), wild type (human, UniProt P31785 23-369)
T1 construct: also called wild type human IL2RG; WT IL2RG
T1 sequence: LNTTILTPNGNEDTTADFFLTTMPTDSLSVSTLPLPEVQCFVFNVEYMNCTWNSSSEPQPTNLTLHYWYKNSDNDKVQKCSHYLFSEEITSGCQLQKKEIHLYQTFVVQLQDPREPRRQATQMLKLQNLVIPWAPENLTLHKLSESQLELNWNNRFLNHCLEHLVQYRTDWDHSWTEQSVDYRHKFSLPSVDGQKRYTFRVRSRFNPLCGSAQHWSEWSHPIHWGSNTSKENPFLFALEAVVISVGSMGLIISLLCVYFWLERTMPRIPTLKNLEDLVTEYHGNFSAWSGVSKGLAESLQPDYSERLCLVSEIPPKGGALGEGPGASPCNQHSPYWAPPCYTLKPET

T2: murine Il2rg (murine, UniProt P34902 23-369)
T2 construct: whole, on cells; also called mouse IL2RG; murine IL2rg receptor
T2 sequence (looked up): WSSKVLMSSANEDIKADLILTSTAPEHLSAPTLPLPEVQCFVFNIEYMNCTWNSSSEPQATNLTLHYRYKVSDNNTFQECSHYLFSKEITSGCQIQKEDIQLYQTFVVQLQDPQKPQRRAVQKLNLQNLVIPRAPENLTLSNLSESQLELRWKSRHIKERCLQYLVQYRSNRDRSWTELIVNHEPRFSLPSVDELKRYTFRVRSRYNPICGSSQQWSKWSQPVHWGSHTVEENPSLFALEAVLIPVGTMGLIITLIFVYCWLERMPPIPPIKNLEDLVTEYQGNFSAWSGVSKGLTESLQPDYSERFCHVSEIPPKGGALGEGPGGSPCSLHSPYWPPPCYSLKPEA

T3: recombinant human IL2RG extracellular domain (human, UniProt P31785 23-262)
T3 construct: also called IL2RG ectodomain; ECD
T3 sequence: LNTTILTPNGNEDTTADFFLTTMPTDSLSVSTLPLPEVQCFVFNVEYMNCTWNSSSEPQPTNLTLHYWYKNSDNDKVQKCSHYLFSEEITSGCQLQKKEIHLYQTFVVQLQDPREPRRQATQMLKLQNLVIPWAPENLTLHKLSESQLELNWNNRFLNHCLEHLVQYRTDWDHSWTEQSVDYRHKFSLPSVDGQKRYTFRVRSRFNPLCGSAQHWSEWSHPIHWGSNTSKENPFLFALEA

B1: REGN7257 (antibody, human IgG4 S228P, kappa, V domains shown)
VH: EVQLVESGGGLVQPGGSLRLSCAASGFIFSSYEMHWVRQAPGKGLEWISYISSSGTTIYYADSVKGRFTISRDNAKNSLYLHMNSLRAEDTAVYYCTRARITGTFDVFDIWGQGTMVTVSS
VL: DIQMTQSPSSLSASVGDRVTITCRASQSISSYLNWYQQKPGKAPKLLIFAASNLQSGVPSRFSGSRSGTDFTLTISSLQPEDFATYYCQQNYNIPYTFGQGTKLEIKR
notes: also called H4H12889P; anti-IL2RG antibody
B2: REGN7257 Fab region (Fab, V domains shown)
VH: B1 VH
VL: DIQMTQSPSSLSASVGDRVTITCRASQSISSYLNWYQQKPGKAPKLLIFAASNLQSGVPSRFSGSRSGTDFTLTISSLQPEDFATYYCQQNYNIPYTFGQGTKLEIK
notes: Fab region of REGN7257 used for cryoEM

Experiments:
[1] = target: T1, Human IL2RG (interleukin-2 receptor …); assay: flow cytometry on iPSC-derived NK cells
murine Il2rg = target: T2, murine Il2rg; assay: stated in Example 1 for donor T cells of wild-type mice; no binding assay described
[2] = target: T3, recombinant human IL2RG extracellular …; assay: cryoEM of the complex

Binder	binding result [1]	binding result (murine Il2rg)	binding result [2]
B1	binds	no binding	
B2			binds
